The source of these data is patent publication US20220411525A1, “BCMA AS A TARGET FOR T CELL REDIRECTING ANTIBODIES IN B CELL LYMPHOMAS” (Janssen Pharmaceutica NV, priority 2021, published 2022).

This test has as its target B cell maturation antigen (BCMA) (human) (UniProt Q02223). Nature of the test: cell-based or functional assay.

Sequence of B cell maturation antigen (BCMA) (human) (Q02223 whole entry): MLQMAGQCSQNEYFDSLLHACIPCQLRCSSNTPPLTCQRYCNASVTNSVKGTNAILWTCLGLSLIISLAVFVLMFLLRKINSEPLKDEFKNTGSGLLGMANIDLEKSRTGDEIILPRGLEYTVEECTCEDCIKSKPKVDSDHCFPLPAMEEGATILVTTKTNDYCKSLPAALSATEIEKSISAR

“BCMAxCD3 DuoBody Teclistamab (JNJ-64007957) (bispecific antibody)” returned an average cell death of primary CLL cells, HD PBMCs 10:1 E:T, 96 h, 100 ng/mL, no γ-secretase inhibitor (first T cell donor) of 15.8%; an average cell death of primary CLL cells, HD PBMCs 10:1 E:T, 96 h, 100 ng/mL, no γ-secretase inhibitor (second T cell donor) of 20%; an average cell death of primary CLL cells, HD PBMCs 10:1 E:T, 96 h, 100 ng/mL, with 100 nM γ-secretase inhibitor (first T cell donor) of 25.8%; an average cell death of primary CLL cells, HD PBMCs 10:1 E:T, 96 h, 100 ng/mL, with 100 nM γ-secretase inhibitor (second T cell donor) of 27.4%. Moreover, the average lysis of primary CLL cells, HD PBMCs 10:1 E:T, 48 h, 100 ng/mL, no γ-secretase inhibitor (first T cell donor) worked out at 12.9%; the average lysis of primary CLL cells, HD PBMCs 10:1 E:T, 48 h, 100 ng/mL, no γ-secretase inhibitor (second T cell donor) was determined as 16.4%; the average lysis of primary CLL cells, HD PBMCs 10:1 E:T, 48 h, 100 ng/mL, with 100 nM γ-secretase inhibitor (first T cell donor) was determined as 14.9%; the average lysis of primary CLL cells, HD PBMCs 10:1 E:T, 48 h, 100 ng/mL, with 100 nM γ-secretase inhibitor (second T cell donor) came to 21.6%. Moreover, the lysis of primary CLL cells by HD CD8+ T cells, 5:1 E:T, 96 h, 100 ng/mL is below 60% and the mean lysis of primary CLL cells by autologous CLL derived T cells, 5:1 E:T, 96 h, 100 ng/mL is 40%.
